From the supplement of paper PMC12042874
± gives the uncertainty stated by the source.

experiment: amyloid nucleation score (Sup35N fusion, yeast selection) (log enrichment); library NNK3; higher = more nucleation; inactive = no reads after selection
Outline: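 The nucleation score is the DiMSum log enrichment of output over input reads, centred on the mode score of non-aggregating sequences. Only sequences with 100 or more input reads were scored, using Illumina sequencing of input and output plasmid inserts. Psi-negative yeast expressing Sup35N fused to peptides of 20 random codons were induced 24 hours with 100 μM copper sulfate and grown 7 days at 30°C on medium lacking adenine and uracil.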

| Substance | amyloid nucleation score |
| --- | --- |
| SKNATIQAMFERLVVVIS | inactive |
| SKPLFMTNNVTMGTIWPHMG | inactive |
| SKTFNDPFLLNHLNTFIKPR | -0.259 ± 0.93 |
| SKTMALMYLSFQPHYLYTLC | inactive |
| SKTPLCMNYFL | inactive |
| SKVMVHVIWEIVILFMKSKI | inactive |
| SKWAYIAFGVFVLLFALFNK | -0.161 ± 0.27 |
| SLALFFGIHPNLCFTDTSST | 0.559 ± 0.2 |
| SLCDSVGSKSVF | inactive |
| SLCLVSLLCFSFRCNDGKWR | 1.38 ± 0.084 |
| SLDIKPSMRCGRRCVRGRST | inactive |
| SLDWCIRVITGGLRSVVRA | inactive |
| SLFGVNGMSAPGRRDV | 0.589 ± 0.31 |
| SLFRFVDECCMNDFRLRLSC | inactive |
| SLFSEMSVYMQDYFWVT | inactive |
| SLFSGVYSFYY | inactive |
| SLGSMAAVLSPSTAERPANL | inactive |
| SLGYHLYRHARVCYRMCDIW | inactive |
| SLHVSTAFVFDIVLSNYLPV | inactive |
| SLIDRIIVKPKVWTGGKNYP | inactive |
| SLIIDKGPDVYCSWTVERIT | inactive |
| SLILENLFVSFLTSKIILGF | inactive |
| SLILERFNRHCVWGVSVKKH | inactive |
| SLIYTKYLLMYFIILFLDGG | inactive |
| SLKCIRSVLNPWAGAALYPS | inactive |
| SLLFRSLIWSTFDPCSELGP | inactive |
| SLLFTGHLCLYHTLVCCVFI | 1.28 ± 0.11 |

| Substance | amyloid nucleation score |
| --- | --- |
| SLLRFSLGSCWTFSPKGNYL | 1.87 ± 0.085 |
| SLLWSLSTYNVRIIHMM | inactive |
| SLMDVN | inactive |
| SLMLGYETFFMPCGQDMAKW | inactive |
| SLMYKCLINSILY | 1.97 ± 0.051 |
| SLNNYFYSTNYETSFTLD | inactive |
| SLRFCWILGENQSGTCSIKR | 1.16 ± 0.15 |
| SLSIMYIFTWDGPYIECTFY | 2.71 ± 0.069 |
| SLTEQNL | inactive |
| SLTRQLEPADNTDPRCVKSV | inactive |
| SLVIAQARANRNILLLTVAR | inactive |
| SLWIYTMSYCLSWNYDCFG | 0.669 ± 0.17 |
| SLYRDLHFYSVLGF | inactive |
| SLYVHRSIANGF | inactive |
| SMASGRSALIKVV | inactive |
| SMCCCNILDLNRN | 3.11 ± 0.057 |
| SMCGYWRHI | inactive |
| SMFSLWNS | inactive |
| SMHARGDL | inactive |
| SMLGHKIN | inactive |
| SMQVQMTWLCDRSSLGQRNL | 1.61 ± 0.074 |
| SMRSRCNFFTVCSAWLSFWE | inactive |
| SMWYLVLN | inactive |
| SNALYCPWHWLIHQVV | inactive |
| SNCRNQFRERVLIAGVLWVV | inactive |
| SNESLWVSLIICFVTHWFQI | inactive |
| SNFLLSSLIHLVPMMSL | inactive |

| Substance | amyloid nucleation score |
| --- | --- |
| SNGLGLSLGNESANKEA | inactive |
| SNICKLFCCTESIKSQTRLW | 2.61 ± 0.082 |
| SNIRVKFHTPSIGMRCLRTR | inactive |
| SNLFFSDWTLCCRCIVLVFK | 1.6 ± 0.097 |
| SNMVPLVNSIPRKGVVKG | inactive |
| SNPGAMSMCEYGGLFSRWLY | -0.516 ± 0.96 |
| SNPGSALDIMGTNQIYPSQH | inactive |
| SNPHIILID | inactive |
| SNSVHISLYIGSPSFA | 2.56 ± 0.086 |
| SNVVSTS | inactive |
| SNVVYMKYRMAVLVTLGICG | inactive |
| SNYICTYIQKFSIVYCIPSH | 1.96 ± 0.08 |
| SPFCFSCIHACWGNEKIRWV | inactive |
| SPFLCLLLDNEGKVLKVSYK | inactive |
| SPGGLGFSVNLHCSTYFRPS | 1.24 ± 0.14 |
| SPLRRCMCSFDDAKWWMCGE | 0.803 ± 0.25 |
| SPWLSAHRSNTGVRTLSLEV | inactive |
| SPYTVQ | inactive |
| SQFLLGSQ | inactive |
| SQGQY | -0.672 ± 1.4 |
| SQSFYLFLGQRSRTY | 1.33 ± 0.11 |
| SQSNGFGFFYMMSLVSWVDV | inactive |
| SRCFLKKYCFLMTSILVRGI | inactive |
| SRCIFIIVIVSGSYGFSVSN | 1.14 ± 0.13 |
| SREDCGGI | inactive |
| SRFLSIRELRFWYSMNRWGI | inactive |
